Test results taken from patent US20220112525A1, “BIOSYNTHESIS OF VANILLIN FROM ISOEUGENOL” (Conagen Inc., priority 2019, published 2022).

Columns and labels:
[1] = Enzyme assay in vitro with 4,4'-dihydroxy-3,3'-dimethoxystilbene as substrate, vanillin detected by HPLC; assay type: biochemical; conditions: 30° C., 50 mM Tris-HCl pH 8.5, substrate 200 μM
Description: The activity of FfLSD was determined by two substrates, 4,4′-dihydroxy-3,3′-dimethoxystilbene and isoeugenol, respectively. For measuring the activity toward 4,4′-dihydroxy-3,3′-dimethoxystilbene, the activity was assayed at 30° C. in 2.5 ml of 50 mM Tris-HCl buffer (PH 8.5) containing suitable amounts of enzyme solution. The enzyme reaction was started by addition of substrates dissolved in 10 μL of N,N-dimethylformamide (DMF) to a final concentration of 200 μM. The reaction product, vanillin, was detected with HPLC analysis.

[2] = Enzyme assay in vitro with isoeugenol as substrate, formation of vanillin by HPLC; assay type: biochemical; conditions: 10 mM isoeugenol, 10 min
Description: The activity was also measured with isoeugenol by measuring the formation of vanillin. The reaction mixture contained 10 mM isoeugenol, 100 mM potassium phosphate buffer (pH 7.0), 10% (v/v) ethanol and an appropriate amount of enzyme, in a total volume of 1 ml. The reaction was started, by adding isoeugenol as ethanol solution, carried out at 30° C. for 10 min with reciprocal shaking (160 strokes min^−1) and stopped with 1 ml of methanol. After centrifugation at 21,500, the supernatant was analyzed by HPLC for the determination of isoeugenol, vanillin, vanillyl alcohol. FfLSD enzyme treated in boiling water for 5 minutes was used as the negative control.
Almost all isoeugenol added to the reaction mixture was converted to vanillin (top panel). As expected, no vanillin was produced with the negative control (bottom panel).

activity toward 4,4′-dihydroxy-3,3′-dimethoxystilbene [1]: did not show activity | isoeugenol added to the reaction mixture converted to vanillin ([2]; pH 7.0, 30° C., HPLC (FIG. 6)): Almost all | activity toward isoeugenol ([2]; potassium phosphate pH 7.0, 30° C.): high activity
B1: FfLSD: putative lignostilbene-α, β-dioxygenase from the fungus Fusarium fujikuroi, 522 amino acids (SEQ ID NO: 2), recombinant, His-tagged (protein, listed as Fusarium fujikuroi)
chain: MSAPEEHHGLKSKWPQAFDLAGSNSPCRIEGEIGDLVVLGEIPPAIDGTFYRVMCDPFVPPHPDNVPLDGDGHVSAFRIYNGRVDMKIKYVETERYKLERKAGKALFGLYRNPFTHHPCVRAAVDSTANTNMVYWADRLLALKESALPYEMHPDTLETLCYDPFGGQVKAKAFTAHPKIDPFSDELVVYGYEAKGLATRDIVIYSLDKNGIKHDEQWIESPWCAPIHDCVITPNFIVLILWPFEASVERMKAGKQHWAWDYSLPATFIVVPRRKTSKIPASWKQGEHRVYHWKNCMNIHAGSAWEEDNGKLYLETSRVHDNAFPFFPPVDGRMPAPDAKADFVRWEIDLNAPSGTQMADPEVILDVPSEFPRIDERFMTKRNEYLFLNVFIPETSQGGTNIFHGLNGLAMHNHSTGETKWFFAGKDSLVQEPIFIPRTADAPEGDGWVIAMLERRVANRSELVVLDTREFEKPVAFIQLPMHLKAQVHGNWIDSRTRASTEAIVRQIGEVKVSARGALEPLA
modifications: His tag
